Test results published in patent US20200002710A1, “SYSTEMS AND METHODS FOR CONTROL OF GENE EXPRESSION” (TRUSTEES OF BOSTON UNIVERSITY, published 2020).

Key:
Assay in all cases: FP; fluorescence anisotropy; Zn2+, 25 C
Conditions in all cases: tags: N-terminal MBP; C-terminal GS linker + syntrophin ligand S5 (VKESLV)
[1] = molecular target: T1, 43-8 (ZF1) high affinity synTF (artificial)
T1 chain: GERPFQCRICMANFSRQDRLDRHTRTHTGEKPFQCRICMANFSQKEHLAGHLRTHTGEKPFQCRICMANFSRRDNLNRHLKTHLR
Description: (§1) All assays were conducted in 20 mM Tris, pH 7.5, 100 mM […], 50 μM ZnCl2 buffer at 25° C. Proteins, probes, and competitor oligos were added to a final volume of 300 μL. Probes were used at 10 nM in all experiments. For complex assembly experiments (FIG. 1C), indicated concentrations of MBP-ZF₄₃₋₈ harboring a VSKESLV* ligand (SEQ ID NO: 120) (see e.g., FIG. 5A-FIG. 5B, FIG. 7A-FIG. 7B) were titrated against 5 μM concentrations of clamp. Mixtures were allowed to equilibrate at 25° C. for 10 min in Costar black 96-well plates prior to reading. Fluorescence anisotropy (FA) measurements were made at 494 nm using a SpectraMax M5 (Molecular Devices) fluorescence plate reader. For all measurements, anisotropy (r) was calculated using the following equation, wherein I_{∥} and I_{⊥} are parallel and perpendicular fluorescence, respectively:
(§2) TF-DBM binding constants were measured in vitro by fluorescence anisotropy (FA). Recombinant proteins were purified and DBM oligos prepared as described herein. […] Affinities for the interaction were measured as a function of the increase in fluorescence anisotropy resulting from binding of the fusion to a fluorescently labeled (FITC) oligo probe (data not shown). Oligo probe binding to ZF affinity variants was measured. MBP-ZF was titrated against 10 nM oligo probe. […] Kd values were extracted by fitting data to a quadratic binding equation (data not shown). Competition binding experiments were performed to measure binding constants for DBM affinity variants. […] Competitor oligo Kₐ values were extracted by fitting data (converted to fraction probe bound) to a cubic equation describing competitive binding (see e.g., FIG. 6). Sequences for both sets of DBM affinity variants are listed on the right of FIG. 6.

[2] = molecular target: T2, 43-8 (ZF1) low affinity synTF (artificial, R-to-A backbone (low affinity allele, already in ref))
T2 chain: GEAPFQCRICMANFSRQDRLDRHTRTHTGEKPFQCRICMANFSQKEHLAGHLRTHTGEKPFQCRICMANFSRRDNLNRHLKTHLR
Description: as §1, §2

[3] = molecular target: T3, 42-10 (ZF2) high affinity synTF (artificial)
T3 chain: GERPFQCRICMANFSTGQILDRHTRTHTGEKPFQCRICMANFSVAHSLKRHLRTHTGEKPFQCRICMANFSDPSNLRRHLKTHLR
Description: as §1, §2

[4] = molecular target: T4, 42-10 (ZF2) low affinity synTF (artificial, R-to-A backbone (low affinity allele, already in ref))
T4 chain: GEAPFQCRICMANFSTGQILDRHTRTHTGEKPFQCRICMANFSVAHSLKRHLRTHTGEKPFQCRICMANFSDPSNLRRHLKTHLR
Description: as §1, §2

B1: 43-8 DBM1 (dsDNA)
DNA 1: AGAGTGAGGAC
DNA 2: GTCCTCACTCT
**Q.** Which results are given for B1?
**A.** Kd [1]: 6.5 nM; Kd [2]: 13.6 nM

B2: 42-10 DBM1 (dsDNA)
DNA 1: AGACGCTGCTC
DNA 2: GAGCAGCGTCT
**Q.** What does the source list for B2?
**A.** Kd [3]: 2.4 nM; Kd [4]: 15 nM
